In patent US12068729B2, “Anti-factor XII/XIIa antibodies and uses thereof” (Regeneron Pharmaceuticals, Inc., priority 2018, dated 2024):

T1: human FXIIa (Homo sapiens, UniProt P00748)
T1 construct: Factor XIIa, a beta-globulin plasma serine protease composed of an amino-terminal heavy chain and a carboxy-terminal light chain; purchased Enzyme Research Laboratories 1212a; host or cells: human plasma (said of the same vendor's proteins used as immunogen)
T1 sequence (P00748 20-372 limits assumed): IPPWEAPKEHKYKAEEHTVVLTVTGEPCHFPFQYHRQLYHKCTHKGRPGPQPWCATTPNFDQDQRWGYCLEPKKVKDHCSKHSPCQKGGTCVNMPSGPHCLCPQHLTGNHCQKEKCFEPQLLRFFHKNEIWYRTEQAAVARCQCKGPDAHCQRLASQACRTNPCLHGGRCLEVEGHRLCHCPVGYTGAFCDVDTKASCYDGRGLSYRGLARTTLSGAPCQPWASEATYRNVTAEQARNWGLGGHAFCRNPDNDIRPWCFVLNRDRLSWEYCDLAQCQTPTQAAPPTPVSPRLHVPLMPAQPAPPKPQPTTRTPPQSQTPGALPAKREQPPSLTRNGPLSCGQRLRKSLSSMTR
T1 sequence (P00748 373-615 limits assumed): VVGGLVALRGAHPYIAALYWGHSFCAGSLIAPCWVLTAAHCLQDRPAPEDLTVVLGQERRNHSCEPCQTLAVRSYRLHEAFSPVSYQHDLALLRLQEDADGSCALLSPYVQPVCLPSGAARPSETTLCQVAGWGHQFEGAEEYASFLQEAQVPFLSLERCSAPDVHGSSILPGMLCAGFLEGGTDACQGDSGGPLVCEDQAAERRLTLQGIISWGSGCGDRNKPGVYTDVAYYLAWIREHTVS

B1: mAb26036: fully human anti-FXII/FXIIa monoclonal antibody, HCVR/LCVR SEQ ID NOs: 2/10 (antibody, V domains shown)
VH: QVQLVQSGAEVKKPGASVTVSCKASGYTFTSYYLHWVRQAPGQGLEWMGIINPSGGSTSYAQKFQGRVTMTRDTSTSTVYMELSSLRSEDTAVYYCARGVTTVTTYYHYYNMDVWGQGTTVTVSS
VL: DIQMTQSPSSLSASVGDRVTITCRASQGISNYLAWFQQKPGKAPKSLIYAASSLQSGVPSKFSGSGSGTDFTLTISSLQPEDFATYYCQKYNTYPLTFGGGTKVEIK
B2: mAb26049: fully human anti-FXII/FXIIa monoclonal antibody, HCVR/LCVR SEQ ID NOs: 34/42 (antibody, V domains shown)
VH: EVQLVESGGDLVQPGGSLRLSCAASGFTFNTYAMHWVRQAPGKGLEYISAIDTKGGSTYYADSVKGRFTISRDNSKNAQYLQMDSLRVEDMAVYYCARGFGLDVWGQGTTVTVSS
VL: DVVMTQSPLSLAVTLGQPASISCRSSQSLGYSDGNTYLNWFQQRPGQSPRRLIYKVSNRDSGVPDRFSGSGSGTDFTLKINRVETVDVGVYYCMQATHWPYTFGQGTKLEIK
B3: mAb26048: fully human anti-FXII/FXIIa monoclonal antibody, HCVR/LCVR SEQ ID NOs: 18/26 (antibody, V domains shown)
VH: EVQLVESGGGLVQPRGSLRLSCVASGFTFSDYGMSWVRQAPGKGLEWVSVIGGAGHGTYYADSVKGRFTISRDNSRNTLYLQMNSLRDEDTAVYYCAKKYYWNYVGGMDVWGRGTTVTVSS
VL: DIQMTQSPSSVSASVGDRVTITCRASQDINNWLAWYQQKPGKAPKLLISTASSLQSGVPSRFSGSGSGTDFTLTISSLQPEDFATYYCQQANSLPFTFGPGTKVDIK

system: Extrinsic and Common pathways of the coagulation cascade; test: Prothrombin Time (PT) in pooled normal human plasma; assay type: biochemical; settings: dash cells; dose up to 4 uM
Excerpt: (§1) This Example describes the inhibitory activity of selected antibodies, as determined by four functional plasma assays: 1) Activated Partial Thromboplastin Time (aPTT), 2) Prothrombin Time (PT), 3) Thrombin Generation Assay (TGA) triggered by ellagic acid and 4) TGA triggered by Tissue Factor. The aPTT test evaluates all clotting factors of the Intrinsic and Common pathways of the coagulation cascade by measuring time for a clot to form after the addition of calcium and ellagic acid, whereas the PT test evaluates all clotting factors of the Extrinsic and Common pathways of the coagulation cascade after the addition of calcium and Tissue Factor. The TGA triggered by ellagic acid measures the rate and amount of thrombin generated via the Intrinsic and Common pathways whereas TGA triggered by Tissue Factor measures the rate and amount of thrombin generated via the Extrinsic and Common pathways.
The PT was determined on Diagnostica Stago STart4 Hemostasis Analyzer in the following manner. A total of 50 ul of pooled normal human plasma was added to a cuvette at 37° C. After 1 min, 5 ul of a 2× serially diluted test article (antibody or small molecule inhibitor) in PBS was added to the cuvette and allowed to incubate for 5 min. Then 100 ul of Tissue Factor (TriniCLOT PT Excel, Diagnostica Stago) was added to start the reaction. The measured clot time for the test article concentration was normalized to baseline (no drug) plasma clot time and plotted against log molar concentration of the test article. The results were analyzed using nonlinear regression (4-parameter logistics) with Prism 5 software (GraphPad) to obtain doubling time concentration.

Row | Molecule | C2xt of Prothrombin Time (PT) - Extrinsic Pathway
1 | B1 | — (no inhibitory effect on clotting time with a dose up to 4 uM)
2 | B2 | — (no inhibitory effect on clotting time with a dose up to 4 uM)
3 | B3 | — (no inhibitory effect on clotting time with a dose up to 4 uM)

same assay, conditions: dose response curves, pooled normal human plasma

Row | Molecule | effect on plasma PT (in words)
4 | B1 | without increasing PT
5 | B2 | without increasing PT
6 | B3 | without increasing PT

molecular target: T1, human FXIIa; test: Surface plasmon resonance (Biacore 4000) binding kinetics, hFXIIa; settings: 25° C.

Row | Molecule | 100 nM Ag Bound (RU)
7 | B1 | 89.9
8 | B2 | 162.4
9 | B3 | 267.8

same assay, conditions: 37° C.

Row | Molecule | 100 nM Ag Bound (RU)
10 | B1 | 166.52
11 | B2 | 251.5
12 | B3 | 335.6

system: thrombin generated via the Extrinsic and Common pathways; test: Thrombin Generation Assay (TGA) triggered by Tissue Factor; assay type: biochemical, human; settings: Extrinsic Pathway Activation with Tissue Factor; dash cells; dose up to 500 nM
Excerpt: as §1
The thrombin generation profile was determined in a Thermo Scientific Hemker Thrombinoscope in the following manner: A total of 55 ul of pooled normal human plasma was added to a well of a microplate at 37° C. Then 5 ul of a 2× serially diluted test article (antibody or small molecule inhibitor) in PBS was added to the well of the microplate and allowed to incubate for 30 min. 15 ul of Tissue Factor PPP Reagent (Diagnostica Stago) was added to the well and allowed to incubate for 45 min. Then 15 ul of Fluo Flu Cal substrate (Diagnostica Stago) was added immediately before a continuous 90 min reading of the microplate. The measured real-time thrombin concentration values were plotted against time to yield a thrombogram profile for each concentration of the test article used.

Row | Molecule | Concentration required for ↑ lag time by 2× | Concentration required for ↓ endogenous thrombin potential by ½ | Concentration required for ↓ thrombin peak by ½
13 | B1 | — (no effect on thrombin generation with a dose up to 500 nM) | — (no effect on thrombin generation with a dose up to 500 nM) | — (no effect on thrombin generation with a dose up to 500 nM)
14 | B2 | — (no effect on thrombin generation with a dose up to 500 nM) | — (no effect on thrombin generation with a dose up to 500 nM) | — (no effect on thrombin generation with a dose up to 500 nM)
15 | B3 | — (no effect on thrombin generation with a dose up to 500 nM) | — (no effect on thrombin generation with a dose up to 500 nM) | — (no effect on thrombin generation with a dose up to 500 nM)

system: thrombin generated via the Intrinsic and Common pathways; test: Thrombin Generation Assay (TGA) triggered by ellagic acid; assay type: biochemical, human; settings: Intrinsic Pathway Activation with Ellagic Acid
Excerpt: as §1
The thrombin generation profile was determined in a Thermo Scientific Hemker Thrombinoscope in the following manner: A total of 55 ul of pooled normal human plasma was added to a well of a microplate at 37° C. Then 5 ul of a 2× serially diluted test article (antibody or small molecule inhibitor) in PBS was added to the well of the microplate and allowed to incubate for 30 min. 15 ul of APPT-XL Ellagic Acid (Thermo Scientific) was diluted in MP reagent then added to the well and allowed to incubate for 45 min. Then 15 ul of Fluo Flu Cal substrate (Diagnostica Stago) was added immediately before a continuous 90 min reading of the microplate. The measured real-time thrombin concentration values were plotted against time to yield a thrombogram profile for each concentration of the test article used.

Row | Molecule | Concentration required for ↑ lag time by 2× [nM] | Concentration required for ↓ endogenous thrombin potential by ½ [nM] | Concentration required for ↓ thrombin peak by ½ [nM]
16 | B1 | 175 | 250 | 250
17 | B2 | 200 | 250 | 250
18 | B3 | 150 | 250 | 250
